The results in this text go back to IntAct's records for PubMed 10364224.

B1: Tyrosine-protein phosphatase non-receptor type 3 (Homo sapiens), P26045 (parent)
chain: MTSRLRALGGRINNIRTSELPKEKTRSEVICSIHFLDGVVQTFKVTKQDTGQVLLDMVHNHLGVTEKEYFGLQHDDDSVDSPRWLEASKAIRKQLKGGFPCTLHFRVRFFIPDPNTLQQEQTRHLYFLQLKMDICEGRLTCPLNSAVVLASYAVQSHFGDYNSSIHHPGYLSDSHFIPDQNEDFLTKVESLHEQHSGLKQSEAESCYINIARTLDFYGVELHSGRDLHNLDLMIGIASAGVAVYRKYICTSFYPWVNILKISFKRKKFFIHQRQKQAESREHIVAFNMLNYRSCKNLWKSCVEHHTFFQAKKLLPQEKNVLSQYWTMGSRNTKKSVNNQYCKKVIGGMVWNPAMRRSLSVEHLETKSLPSRSPPITPNWRSPRLRHEIRKPRHSSADNLANEMTYITETEDVFYTYKGSLAPQDSDSEVSQNRSPHQESLSENNPAQSYLTQKSSSSVSPSSNAPGSCSPDGVDQQLLDDFHRVTKGGSTEDASQYYCDKNDNGDSYLVLIRITPDEDGKFGFNLKGGVDQKMPLVVSRINPESPADTCIPKLNEGDQIVLINGRDISEHTHDQVVMFIKASRESHSRELALVIRRRAVRSFADFKSEDELNQLFPEAIFPMCPEGGDTLEGSMAQLKKGLESGTVLIQFEQLYRKKPGLAITFAKLPQNLDKNRYKDVLPYDTTRVLLQGNEDYINASYVNMEIPAANLVNKYIATQGPLPHTCAQFWQVVWDQKLSLIVMLTTLTERGRTKCHQYWPDPPDVMNHGGFHIQCQSEDCTIAYVSREMLVTNTQTGEEHTVTHLQYVAWPDHGVPDDSSDFLEFVNYVRSLRVDSEPVLVHCSAGIGRTGVLVTMETAMCLTERNLPIYPLDIVRKMRDQRAMMVQTSSQYKFVCEAILRVYEEGLVQMLDPS

The variants in one test derive from B1. To be noted: with tera_human VCP.
Regarding D811A, the “effect of a mutation on the interaction” value was “increasing interaction”.

Variants of B1 are the subject of the next test. The conditions noted are these: with tera_human VCP. This is another data set of the same source.
Take Y676F;D811A: the “effect of a mutation on the interaction” value is “increasing interaction”.

The variants in a further test derive from B1. To be noted: with tera_mouse Vcp.
With Y676F;D811A, the “effect of a mutation on the interaction” value is “increasing interaction”.
